Measurements published in patent publication US20260374857 (published 2026).
Where a chain is given by its changes, count along the chain named. Like-named read-outs stand apart in the source and are kept apart here. One block for each binder: values may come before it.

Legend:
[1] = biological target: T1, GnRH Bio-peptide 1 (not fully specified); test: ELISA
T1 chain: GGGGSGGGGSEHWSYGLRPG

[2] = biological target: T1, GnRH Bio-peptide 1; test: SPR
[3] = biological target: T1, GnRH Bio-peptide 1; test: ELISA
[4] = biological target: T1, GnRH Bio-peptide 1; test: ELISA
[5] = biological target: T2, GnRH Bio-peptide 2 (not fully specified); test: ELISA
T2 chain: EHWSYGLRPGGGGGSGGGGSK

[6] = biological target: T1, GnRH Bio-peptide 1; test: ELISA
[7] = biological target: T2, GnRH Bio-peptide 2; test: SPR
[8] = biological target: T1, GnRH Bio-peptide 1; test: ELISA
[9] = biological target: T2, GnRH Bio-peptide 2; test: ELISA
[10] = biological target: T1, GnRH Bio-peptide 1; test: ELISA
[11] = biological target: T1, GnRH Bio-peptide 1; test: ELISA

EC50 [8]: 14.4 nM
EC50 [9]: 0.36 nM
EC50 [10]: 8.16 nM
B2: Clone 9 (pGnRH-009) (antibody, V domains shown)
VH: EVQLVESGGGLVQSGGSLGLSCAASGRTFSGYAMGWFRQAPGKEREFVAAIRWSGGSTSYADSVKGRFTISRDNAKNTVYLQMNSLKPEDTAVYYCAADRGPSGSYYYPDYWGQGTQVTVSS

EC50 [3]: 415000 nM
B5: Clone 19 (pGnRH-019) (antibody, V domains shown)
VH: QVQLVESGGGLVQAGGSLRLSCTASGRTFNNYVLGWFRQTPGKEREFVAAIRWTGSNTHADSVKGRFTISRDNAKNTVYLQMNSLKPEDTAVYYCAADDAYYPGNLRPQYWGQGTQVTVSS

binding result [11]: no binding
B6: Clone 9 Ala scanning 1 (antibody, V domains shown)
VH: B2 VH with D99A

The remaining lines, values behind:

B1: Clone 1 (pGnRH-001) (antibody, V domains shown)
VH: B5 VH with L18V, W53G, N57T
EC50 [1]: 1.27 nM
Kd [2]: 13.5 nM
EC50 [3]: 14 nM
EC50 [4]: 0.41 nM
EC50 [5]: 0.3 nM
EC50 [6]: 4 nM
Kd [7]: 7.1 nM

B3: 09Tm1 (antibody, V domains shown)
VH: B2 VH with E1D, S14P, G19R
EC50 [9]: 1.91 nM
EC50 [10]: 0.99 nM

B4: 09Tm2 (antibody, V domains shown)
VH: B2 VH with E1D, S14P, G19R, W53F
EC50 [9]: 1.99 nM
EC50 [10]: 1.37 nM
